Results: patent publication US12180473B2, “Chimeric RNA-driven genomic rearrangement in mammalian cells” (priority 2018, dated 2024)
Entries after “also recorded” stand apart in the source; their conditions may differ.

B1: Antisense-1: input RNA, SEQ ID NO: 4 (nucleic acid)
antisense: TCAGATCGCCTGGAGACGCCATCCACGCTGTTTTGACCTCCATAGAAGACACCGGGACCGATCCAGCCTCCCCTCGAAGCTGATCCTGAGAACTTCAGGCTCCTGGGCAACGTGCTGGTCTGTGTGCTGGCCCATCACTTTGGCAAAGAATTCCTTGAGCCATTCACCTGGCTAGGGTTACATTCCATTTTGATGGTGACCCTGGCTGGGGGTTGAGACAGCCAATCCTGCTGAGGGACGCGTGGGCTCATCTTGGAAGTCTGTCCATAGTCGCTGGAGGAGGACGCGGTCATCTCTGTCTTAGCCAGGTGTGGCGTTCCGTAGGCACACTCAAACAACGACTGGTCCTCACTCACAACTGATAAGGCTTCCTGCCGCGCTCCAGGCGGCGCTCCCCGCCCCTCGCCCTCCGCCTCCGCCTCCGCCTCCTGCTTAGCTCGCGCCTACTCAAGCTTATCGATACCGTCGACCTCGAGGGCCCAGATCTAATTCACCCCACCAGTGCAGGCTGCCTATCAGAAAGTGGTGGCTGGTGTGGCTAATGCCCTGGCCCACAAGTATCACTAAGCTCGCTTTCTTGCTGTCCAATTTCTATTAAAGGTTCCTTTGTTCCCTAAGTCCAACTACTAAACTGGGGGATATTATGAAGGGCCTTCCGGAGCATCTGGATTCTGCCTAATAAAAAACATTTATTTTCATTGCAAAAAAA
B2: Antisense-C1: input RNA, SEQ ID NO: 18 (nucleic acid)
antisense: TGTGCTCGCTTCGGCAGCACATATACTAACATTGGAACGATCCTGCAGTGAGCTCATGCTATTCCTATGACATAGATGAGCACTGGGTAGACCCCGTCCTGGTAACACTATTCATGCACTAACCCCAGGCGGGGGCCGTGGAGGGCAGGCGGACTAGGAGCCAGCTTTGGGGACC
B3: Antisense-5A: input RNA, SEQ ID NO: 13 (nucleic acid)
antisense: TGTGCTCGCTTCGGCAGCACATATACTAACATTGGAACGATCCTGCAGGCCGCTCACCTGCCGCGCTCCAGGCGGCGCTCCCCGCCCCTCGCCCTCCGCCAGACAGGAGTGAGAGATGGAAGCTCGCGCCTACTC
B4: Antisense-3: input RNA, SEQ ID NO: 6 (nucleic acid)
antisense: TGTGCTCGCTTCGGCAGCACATATACTAACATTGGAACGATCCTGCAGCTTGAGCCATTCACCTGGCTAGGGTTACATTCCATATTGATGGTGACCCTGGCTGGGGGTTGAGACAGCCAATCCCGGACCCCGAGCCGGGACCCTGGTACCGGCGCCGCTCACCTGCCGCGCTCCAGGCGGCGCTCCCCGCCCCTCGCCCTCCGCCAGACAGGAGTGAGAGATGGAAGCTCGCGCCTACTC
B5: Antisense-D1: input RNA, SEQ ID NO: 21 (nucleic acid)
antisense: TGTGCTCGCTTCGGCAGCACATATACTAACATTGGAACGATCCTGCAGGAGAGACAGAGAGAGAGAGGCTGGTAGAGGGAAGAGACAGAAGAAAGATGAAGGGATAAGTGTCCAGAATCCCTGAGCGCTCGACCCTCGGGCGCACTCACCTGCCGCGCCGCGCTCCTCACACCCG
B6: Antisense-B2: input RNA, SEQ ID NO: 16 (nucleic acid)
antisense: TGTGCTCGCTTCGGCAGCACATATACTAACATTGGAACGATCCTGCAGTGGCCTGAGCCTTGAAGAATGGGGTGTACTGGGTAAATCAAAATGGTGGGGAGCATTTCCAGATGGAGAAACTGCCCCTCCCCAGCCCGGACCCCGAGCCGGGACCCTGGTACCGGCGCCGCTCACC
B7: Sense-D1: input RNA, SEQ ID NO: 33 (nucleic acid)
sense: TGTGCTCGCTTCGGCAGCACATATACTAACATTGGAACGATCCTGCAGCGGGTGTGAGGAGCGCGGCGCGGCAGGTGAGTGCGCCCGAGGGTCGAGCGCTCAGGGATTCTGGACACTTATCCCTTCATCTTTCTTCTGTCTCTTCCCTCTACCAGCCTCTCTCTCTCTGTCTCTC
B8: Antisense-7: input RNA, SEQ ID NO: 10 (nucleic acid)
antisense: TGTGCTCGCTTCGGCAGCACATATACTAACATTGGAACGATCCTGCAGCTTGAGCCATTCACCTGGCTAGGGTTACATTCCATATTGATGGTGACCCTGGCTGGGGGTTGAGACAGCCAATCCCGGACCCCGAGCCGGGACCCTGGTACCGGCGCCGCTCACCTGCCGCGCTCCAAGACAGGAGTGAGAGATGGAAGCTCGCGCCTACTC
B9: Antisense-F1: input RNA, SEQ ID NO: 25 (nucleic acid)
antisense: TGTGCTCGCTTCGGCAGCACATATACTAACATTGGAACGATCCTGCAGAATGGATGAATACATAAAATAAATTGTGGTGGATATATACAACGGAATATCATTTAGCCTTTATTATTATTGAGAACTGTGCCGAGCCGGGCAGGACAGGATGAGGTGGACCGAAGCGCCCAGGTGC
B10: Antisense-B1: input RNA, SEQ ID NO: 15 (nucleic acid)
antisense: TGTGCTCGCTTCGGCAGCACATATACTAACATTGGAACGATCCTGCAGTGGCCTGAGCCTTGAAGAATGGGGTGTACTGGGTAAATCAAAATGGTGGGGAGCATTTCCAGATGGAGAAACTGCCTCACCTGCCGCGCTCCAGGCGGCGCTCCCCGCCCCTCGCCCTCCGCCTCCG
B11: Antisense-D3: input RNA, SEQ ID NO: 23 (nucleic acid)
antisense: TGTGCTCGCTTCGGCAGCACATATACTAACATTGGAACGATCCTGCAGTGAAGGGATAAGTGTCCAGAATCCCTGGATCTGGGATGGAATAAAGGATCTGGATGGTAAACGGAGAGTGCTGGGAGCGCTCGACCCTCGGGCGCACTCACCTGCCGCGCCGCGCTCCTCACACCCG
B12: Antisense-D2: input RNA, SEQ ID NO: 22 (nucleic acid)
antisense: TGTGCTCGCTTCGGCAGCACATATACTAACATTGGAACGATCCTGCAGGAGAGACAGAGAGAGAGAGGCTGGTAGAGGGAAGAGACAGAAGAAAGATGAAGGGATAAGTGTCCAGAATCCCTGCCCAGCACTCTCCCAGCACCCCGGGAGGCGCCCTGCCCGGCTGGCCCCAGCG
B13: Sense-C1: input RNA, SEQ ID NO: 32 (nucleic acid)
sense: TGTGCTCGCTTCGGCAGCACATATACTAACATTGGAACGATCCTGCAGGGTCCCCAAAGCTGGCTCCTAGTCCGCCTGCCCTCCACGGCCCCCGCCTGGGGTTAGTGCATGAAGAGTGTTACCAGGACGGGGTCTACCCAGTGCTCATCTATGTCATAGGAAGAGCATGAGCTCA
B14: Antisense-5B: input RNA, SEQ ID NO: 14 (nucleic acid)
antisense: TGTGCTCGCTTCGGCAGCACATATACTAACATTGGAACGATCCTGCAGCTTGAGCCATTCACCTGGCTAGGGTTACATTCCATATTGATGGTGACCCTGGCTGGGGGTTGAGACAGCCAATCC
modifications: input RNA, chemistry not given here
B15: Antisense-G1: input RNA, SEQ ID NO: 26 (nucleic acid)
antisense: TGTGCTCGCTTCGGCAGCACATATACTAACATTGGAACGATCCTGCAGTTTATTCATGAGAAAATTCTGGCACAATGGAAAACCCTGGCAAGCAAAAGATAGGGGCAGCAGATGTCCTGGCCTACAAAGAACTCCAAGCCCATCGTCCCTAGAAAGCATGGTCTCCCATGACCCC
B16: Antisense-C3: input RNA, SEQ ID NO: 20 (nucleic acid)
antisense: TGTGCTCGCTTCGGCAGCACATATACTAACATTGGAACGATCCTGCAGGTCCTGGTAACACTATTCATGCACTAACAAGTTGGTTGCCAGTGAGACTTGATTATTATGACTCTGGGAGTGCTGCCCAGGCGGGGGCCGTGGAGGGCAGGCGGACTAGGAGCCAGCTTTGGGGACC
B17: Sense-B1: input RNA, SEQ ID NO: 31 (nucleic acid)
sense: TGTGCTCGCTTCGGCAGCACATATACTAACATTGGAACGATCCTGCAGCGGAGGCGGAGGGCGAGGGGCGGGGAGCGCCGCCTGGAGCGCGGCAGGTGAGGCAGTTTCTCCATCTGGAAATGCTCCCCACCATATTGATTTACCCAGTACACCCCATTCTTCAAGGCTCAGGCCA
B18: Antisense-E1: input RNA, SEQ ID NO: 24 (nucleic acid)
antisense: TGTGCTCGCTTCGGCAGCACATATACTAACATTGGAACGATCCTGCAGAGGGTATTCAGTATTACTATTTGGCTTAGATAAGCTGGTAGTTACTTGCTAAAATTAATCTTTATTATAAAGCAGAAAGCCGCATTCTGACATCACTCTCCATGGACAAAGATTCTTCGCTTGATCA

Each molecule was assayed on TMPRSS2-ERG fusion (assay: RT-PCR detection of induced endogenous TMPRSS2-ERG fusion transcript in LNCaP cells expressing input RNA). Conditions: LNCaP cells transfected with input RNA plasmid, DHT for 3 days.
Protocol: LNCaP cells were cultured in this special medium for 24 hrs prior to plasmid transfection.
Transfection was performed using Turbofect transfection reagent (Thermo Scientific, #R0531) according to manufacturer's protocol. Briefly, 1 μg of a particular plasmid was first diluted in 100 μl of the serum-free DMEM followed by immediate mixing by pipetting. 4 μl of the transfection reagent was then added to the diluted DNA followed by mixing and incubation for 20 min. The DNA/transfection reagent mixture was then added drop wise to a well containing LNCaP cells in 1 ml medium.
For treating cultured cells, concentrated DHT stock was diluted as 10× working solutions (for example, for 0.9 μM final concentration, 10× is prepared as 9.0 μM) with the appropriate complete culture medium and used immediately. […] Six hrs post transfection, 111 μl of fresh 10× DHT working solutions was added to each well of 12-wells plate containing 1 ml medium and transfected cells.
Briefly, cells were suspended in 200 μl of PBS buffer and were then lysed with 400 μl of lysis buffer. The sample was then passed through the filter assembly resulting in the binding of the nucleic acids to the filter. The filter containing nucleic acids was then incubated with DNase I dissolved in DNase incubation buffer to degrade genomic and plasmid DNAs. The column was then rinsed with wash buffer and total RNA then eluted in a new tube for further analysis.
After the addition of dNTPs, the mixture was denatured at 65° C. for 5 minutes. This was followed by the addition of a master-mix containing 1× superscript buffer, 10 mM DTT, 5 mM Magnesium chloride, RNaseOUT and Superscript III reverse transcriptase. Reactions were carried out at 50° C. for 50 minutes and then terminated by incubation at 85° C. for 5 minutes. cDNA was then treated with RNase-H for 20 minutes at 37° C. to degrade RNA in DNA/RNA hybrid. 1 μl of cDNA was used as template for each subsequent PCR reaction.
The Denaturation, Annealing and Extension steps were performed 32 cycles for induced fusion RNA and 27 cycles for input RNA.
In the case of B1, the “induction of endogenous TMPRSS2-ERG fusion transcript (RT-PCR)” value (from here on “induction”) is reported as “induced a clear band of 721 bp”.
In the case of B2, the “induction” value is reported as “clearly induced fusion transcripts”.
In the case of B3, the “induction” value is reported as “loss of induction”.
For B4, the “induction” value was “unable to induce fusion”.
For B5, the “induction” value was “clearly induced fusion transcripts”.
B6 was tested, and the “induction” value was “complete loss of induction”.
For B7, the “induction” value was “failed to induce fusion transcripts”.
With B8 the “induction” value was “loss of induction; also recorded: did not”.
B9 was tested, and the “induction” value was “failed to induce fusion transcripts”.
With B10 the “induction” value was “clearly induced fusion transcripts”.
In the case of B11, the “induction” value is reported as “complete loss of induction”.
With B12 the “induction” value was “complete loss of induction”.
In the case of B13, the “induction” value is reported as “failed to induce fusion transcripts”.
For B14, the “induction” value was “loss of induction”.
B15 was tested, and the “induction” value was “failed to induce fusion transcripts”.
In the case of B16, the “induction” value is reported as “complete loss of induction”.
In the case of B17, the “induction” value is reported as “failed to induce fusion transcripts”.
For B18, the “induction” value was “failed to induce fusion transcripts”.

Same assay, conditions: LNCaP cells transfected with input RNA plasmid, DHT for 3 days; listed as antisense-3
With B4 the “induction” value was “inability of antisense-3 to induce; also recorded: did not”.

Same assay, conditions: fusion gene partners TMPRSS2-ERG, LNCaP
B1 was tested, and the “Cell line(s) identified” value was “LNCaP”.
For B2, the “Cell line(s) identified” value was “LNCaP”.
B5 was tested, and the “Cell line(s) identified” value was “LNCaP”.
For B10, the “Cell line(s) identified” value was “LNCaP”.
